The values that follow come from article PMC6327041 (Nature Communications, 2019).

Read-outs that look alike come from different tables or passages of the source.

The assay has as its target T1, KDM5A1-797 (Homo sapiens, UniProt P29375).
T1 construct: KDM5A1-797 was cloned into a pFASTBAC HTA vector; His (N, cleaved yes); made in house; host or cells: Sf21 insect cells (baculovirus)
T1 sequence (P29375 1-797): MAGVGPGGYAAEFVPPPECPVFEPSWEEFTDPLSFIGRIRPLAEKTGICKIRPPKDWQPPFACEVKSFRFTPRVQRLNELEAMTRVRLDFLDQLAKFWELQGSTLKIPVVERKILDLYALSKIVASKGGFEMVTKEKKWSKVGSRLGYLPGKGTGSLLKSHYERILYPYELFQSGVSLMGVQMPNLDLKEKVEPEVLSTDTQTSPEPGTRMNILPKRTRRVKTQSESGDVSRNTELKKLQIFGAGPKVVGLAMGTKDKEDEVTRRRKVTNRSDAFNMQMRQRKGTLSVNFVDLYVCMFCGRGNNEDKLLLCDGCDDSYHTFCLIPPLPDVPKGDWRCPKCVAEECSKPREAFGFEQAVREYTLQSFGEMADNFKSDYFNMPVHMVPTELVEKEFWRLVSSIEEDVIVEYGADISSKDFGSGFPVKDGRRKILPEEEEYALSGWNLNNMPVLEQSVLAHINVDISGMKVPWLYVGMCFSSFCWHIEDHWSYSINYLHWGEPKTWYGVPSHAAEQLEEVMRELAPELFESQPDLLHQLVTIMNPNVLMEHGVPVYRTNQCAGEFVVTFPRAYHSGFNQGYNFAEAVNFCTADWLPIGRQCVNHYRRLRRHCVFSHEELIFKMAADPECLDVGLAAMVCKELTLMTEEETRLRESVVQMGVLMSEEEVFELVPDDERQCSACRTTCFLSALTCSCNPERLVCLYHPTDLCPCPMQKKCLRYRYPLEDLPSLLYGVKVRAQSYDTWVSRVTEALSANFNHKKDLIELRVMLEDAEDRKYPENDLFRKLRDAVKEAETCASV
The experiment in a line: KDM5A demethylation, FDH-coupled formaldehyde release assay. The assay is classed as biochemical. The following applies: for kcat / Km: n ≥ 3, s.e.m. The protocol:
WT KDM5A1-797 was expressed in Sf21 cells following Invitrogen Bac-to-Bac baculovirus expression system protocol. KDM5A1-797 was cloned into a pFASTBAC HTA vector. Purified bacmid was transfected in Sf21 cells. Approximately […] cells per well of a six-well dish were allowed to attach in 2 ml of SF-900 II SFM media containing 50 U ml^−1 penicillin and 50 μg ml^−1 streptomycin. While cells attached, 8 μl of Cellfectin II reagent (Invitrogen) in 100 μl of unsupplemented Grace’s medium was mixed with ~2–5 μg of bacmid in 100 μl of unsupplemented Grace’s medium and incubated for 15–30 min at 25 °C. Once cells were attached, media was removed and cells were washed with 2 ml of Grace’s unsupplemented media. The bacmid DNA:Cellfectin mixture was then diluted to 1 ml with Grace’s unsupplemented media and added to the well. Cells with bacmid:Cellfectin II mixture were incubated for 5 h at 27 °C. After 5 h of incubation, bacmid:Cellfectin mixture was removed and replaced with 2 ml of SF-900 II SFM 50 U ml^−1 penicillin and 50 μg ml^−1 streptomycin. Transfected cells were incubated 3–5 days or until signs of viral infection were observed. After transfection, the supernatant was spun down to remove the dead cells. The supernatant was then sterile filtered to obtain the P1 viral stock. To make P2, 20 ml of […] at ~2 × 10^6 cells per ml of sf21 was infected with 2 ml of P1 virus and incubated for 48–60 h. After 56 h, the cells were spun down and the supernatant was collected and sterile filtered to obtain P2 viral stock. Similarly, P3 viral stock from P2 viral stock was obtained. Generally, 1 l of Sf21 at 2 × 10^6 cells per ml was infected with ~40 ml of P3 virus for ~48–56 h. Cells were then collected and resuspended in the lysis buffer (25 mM HEPES pH 7.9, 350 mM NaCl, 5 mM KCl, 1.5 mM MgCl2, 10 mM imidazole, aprotinin 2 μg ml^−1, leupeptin 3 μg ml^−1, pepstatin 3 μg ml^−1, and 1 mM PMSF). Cells were homogenized by emulsiflex. After lysis, the supernatant was recovered by centrifuging at 35k r.p.m. for 45 min, and incubated with cobalt resin equilibrated in lysis buffer for 1 h at 4 °C. After incubation the resin was washed with wash buffer (25 mM HEPES, pH 7.9, 350 mM NaCl, 0.5 mM MgCl2, 10% glycerol, 10 mM imidazole, aprotinin 2 μg ml^−1, leupeptin 3 μg ml^−1, pepstatin 3 μg ml^−1, and 1 mM PMSF). His-KDM5A was eluted with elution buffer (25 mM HEPES pH 7.9, 100 mM NaCl, 0.5 mM MgCl2, 10% glycerol, 100 mM imidazole, aprotinin 2 μg ml^−1, leupeptin 3 μg ml^−1, pepstatin 3 μg ml^−1, and 1 mM PMSF). The His-tag was removed by overnight incubation with TEV protease at 4 °C in the dialysis buffer (25 mM HEPES, pH 7.9, 100 mM NaCl, and 2 mM DTT). After cleavage, protein was further purified by size-exclusion chromatography using a S200 column. Purified KDM5A was eluted, aliquoted and stored at −80 °C in 40 mM HEPES, pH 7.9, 50 mM KCl.
Michaelis–Menten parameters were determined using Graphpad Prism.

Setting [1] is: 38 µM H3 10mer effector peptide vs none.
Where [2] appears, read: KDM5A1-797 WT (Table 3), no effector.

The kcat/Km is the turnover number divided by the Michaelis constant. The kcat is the maximal rate divided by the concentration of active sites. One may read the Km as the concentration of substrate that gives half-maximal velocity. Consider “Ac-H3K4me3 21mer: N-terminally acetylated 21mer H3K4me3 peptide, catalytic domain substrate”, for which the “change of kcat on addition of effector peptide” value under setting [1] is listed as “kcat remains similar”. Besides, under setting [1], the “reduction in Km on addition of effector peptide” value was “fivefold”. The kcat/Km by setting is: (+H3 10mer peptide (38 µM)) 2430 ± 200 M⁻¹ s⁻¹; under setting [2], 490 ± 55 M⁻¹ s⁻¹; (No effector peptide) 490 ± 55 M⁻¹ s⁻¹. The kcat (+H3 10mer peptide (38 µM), 1 μM KDM5A, pH 7.5, room temperature) was determined as 0.0408 ± 0.00067 s⁻¹; the kcat under setting [2] was 0.047 ± 0.0013 s⁻¹; the turnover number (kcat) (No effector peptide, 1 μM KDM5A, pH 7.5, room temperature) worked out at 0.047 ± 0.001 s⁻¹. Also, the Km (+H3 10mer peptide (38 µM), 1 μM KDM5A, pH 7.5, room temperature, read-out: Km) stood at 16.8 ± 1.1 µM; the Michaelis-Menten constant (Km) (KDM5A1-797 WT (Table 3), no effector, read-out: Km) is 95.5 ± 7.6 µM; the Michaelis constant (Km) (No effector peptide, 1 μM KDM5A, pH 7.5, room temperature, read-out: Km) came to 95.5 ± 7.6 µM.

As for “H3: unmodified N-terminal H3 tail 10mer peptide (H3 Ala1-Ser10), PHD1 effector ligand”, the “rank of Km reduction among effector peptides” value (Ac-H3K4me3 21mer substrate, saturating effector peptide) was “highest reduction in Km”. Moreover, the Km (Km of Ac-H3K4me3 21mer with saturating modified H3 10mer effector (20× Kd; H3K4me2 10× Kd), 1 μM KDM5A, 50 mM HEPES, 50 mM KCl, pH 7.5, room temperature, read-out: Demethylase activity Km with effector peptide (Fig. 4a)) amounted to 16.8 ± 1.1 µM.
